Measured values published in publication doi:10.1101/2020.05.01.070730 (bioRxiv, 2020).
Positions count from the first letter of the chain named.

T1: MutS (Pseudomonas aeruginosa, UniProt Q9HY08 1-855)
T1 sequence: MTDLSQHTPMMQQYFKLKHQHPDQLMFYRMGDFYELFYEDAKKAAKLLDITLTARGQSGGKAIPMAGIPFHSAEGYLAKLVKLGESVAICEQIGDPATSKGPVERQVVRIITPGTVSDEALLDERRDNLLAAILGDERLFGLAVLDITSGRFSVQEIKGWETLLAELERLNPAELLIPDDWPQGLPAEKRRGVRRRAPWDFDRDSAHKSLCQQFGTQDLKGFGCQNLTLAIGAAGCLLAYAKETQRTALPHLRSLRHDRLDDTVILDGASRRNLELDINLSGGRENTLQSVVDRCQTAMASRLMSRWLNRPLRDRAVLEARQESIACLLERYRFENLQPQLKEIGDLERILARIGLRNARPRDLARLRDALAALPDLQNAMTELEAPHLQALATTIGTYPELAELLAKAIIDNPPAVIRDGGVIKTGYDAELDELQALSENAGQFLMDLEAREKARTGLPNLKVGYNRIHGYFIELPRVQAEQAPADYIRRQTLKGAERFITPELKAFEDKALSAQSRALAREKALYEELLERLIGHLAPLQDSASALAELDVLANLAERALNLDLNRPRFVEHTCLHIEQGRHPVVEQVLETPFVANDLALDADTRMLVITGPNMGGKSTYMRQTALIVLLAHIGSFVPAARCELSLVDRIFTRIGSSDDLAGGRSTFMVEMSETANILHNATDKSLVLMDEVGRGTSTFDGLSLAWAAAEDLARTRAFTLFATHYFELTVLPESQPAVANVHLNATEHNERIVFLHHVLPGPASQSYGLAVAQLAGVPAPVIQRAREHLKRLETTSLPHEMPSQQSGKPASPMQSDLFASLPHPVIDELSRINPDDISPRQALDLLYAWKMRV

T2: MutS R842E (Pseudomonas aeruginosa, UniProt Q9HY08 1-855, R842E)
T2 sequence: T1 sequence with R842E

B1: CT-pDNA (dsDNA)
DNA 1: ATGTGAATCAGTATGGTTCCTATCTGC
DNA 2: ATTTCCTTCAGCAGATAGTAACCATACTGATTCACAT
B2: GT-pDNA 13 nt (dsDNA)
DNA 1: ATGTGAATCAGTATGGTTGCTATCTGCTGAAG
DNA 2: B1 DNA 2
B3: GA-pDNA (dsDNA)
DNA 1: ATGTGAATCAGTATGGTTGCTATCTGC
DNA 2: B1 DNA 2 with T19A
B4: CC-pDNA (dsDNA)
DNA 1: ATGTGAATCAGTATGGTTCCTATCTGC
DNA 2: B1 DNA 2 with T19C
B5: TC-pDNA (dsDNA)
DNA 1: ATGTGAATCAGTATGGTTTCTATCTGC
DNA 2: B1 DNA 2 with T19C
B6: GG-pDNA (dsDNA)
DNA 1: ATGTGAATCAGTATGGTTGCTATCTGC
DNA 2: B1 DNA 2 with T19G
B7: AC-pDNA (dsDNA)
DNA 1: ATGTGAATCAGTATGGTTACTATCTGC
DNA 2: B1 DNA 2 with T19C
B8: TG-pDNA (dsDNA)
DNA 1: ATGTGAATCAGTATGGTTTCTATCTGC
DNA 2: B1 DNA 2 with T19G
B9: TT-pDNA (dsDNA)
DNA 1: ATGTGAATCAGTATGGTTTCTATCTGC
DNA 2: B1 DNA 2
B10: MutS from Pseudomonas aeruginosa (natural protein, UniProt Q9HY08 1-855, looked up)
chain: T1 sequence
B11: MutSR272A (natural protein, Pseudomonas aeruginosa, UniProt Q9HY08 1-855, looked up)
chain: T1 sequence with R272A
B12: MutSR842E (natural protein, Pseudomonas aeruginosa, UniProt Q9HY08 1-855, looked up)
chain: T1 sequence with R842E
B13: MutSR272E (natural protein, Pseudomonas aeruginosa, UniProt Q9HY08 1-855, looked up)
chain: T1 sequence with R272E
B14: MutSF33A (natural protein, Pseudomonas aeruginosa, UniProt Q9HY08 1-855, looked up)
chain: T1 sequence with F33A
B15: MutSN279A (natural protein, Pseudomonas aeruginosa, UniProt Q9HY08 1-855, looked up)
chain: T1 sequence with N279A
B16: CA-pDNA (dsDNA)
DNA 1: ATGTGAATCAGTATGGTTCCTATCTGC
DNA 2: B1 DNA 2 with T19A

Target: T1, MutS
Experiment: native PAGE shift

Binder	binding result
B1	binds

Target: T1, MutS
Experiment: native PAGE shift
Remark: another data set of the same source

Binder	binding result
B2	binds
B3	binds
B4	binds
B5	binds
B6	binds

Target: T2, MutS R842E
Experiment: native PAGE shift

Binder	binding result
B2	binds

Target: T1, MutS
Experiment: native PAGE shift
Remark: another data set of the same source

Binder	binding result
B7	binds

Target: T2, MutS R842E
Experiment: native PAGE shift
Remark: another data set of the same source

Binder	binding result
B8	binds
B3	binds
B4	binds
B1	binds
B9	binds
B5	binds
B7	binds
B6	binds

Target: the molecule itself
Experiment: native gel or EMSA

Binder	stoichiometry N
B10	4
B11	4
B12	2
B13	4
B14	4
B15	4

Target: T1, MutS
Experiment: native PAGE shift
Remark: another data set of the same source

Binder	binding result
B8	binds
B9	binds
B16	binds
